Test: yeast display, Sf9 membrane polyspecificity reagent, FACS + sequencing; frameworks hold sequencing errors
Summary of the method: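 In a synthetic yeast display library (Saccharomyces cerevisiae BJ5465), nanobody expression was induced with galactose for 36–48 hours. FACS gates were set low and high (top ~1%) using anti-HA fluorescence for expression and streptavidin fluorescence for binding of the Sf9 membrane reagent. Each polyreactivity label is drawn from the gate of origin.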

Sequence: QVQLVESGGGLVQAGGSLRLSCAASGSIFYSNVMGWYRQAPGKERELVAAISKNGGSTYYADSVKGRFTISRDNAKNTVYLQMNSLKPEDTAVYYCAKYGYVGTTYGYWGQGTQVTVSS
- polyreactivity (PSR sort gate): high polyreactivity

Sequence: QVQLVESGGGLVQAGGSLRLSCAASGSIFYSYAKGWYRQAPGKERELVAAISWDASTYFADSVKGRFTISRDNAKYSVYLQMNSLKPEDTAVYYCNADIPYYFVYDAYDYWGQGTQVTVSS
- polyreactivity (PSR sort gate): low polyreactivity

Sequence: QVQLVESGGGLVQAGGSLRLSCAASGSIFYSYAMGWSRQAPGKERELFAAISYSTTSTYYADSVKGRFTISCDNAKNTVYLQMKSLKPEDTAVYYCAVDYIIWYDGYLLYYWGQGTQVTVSS
- polyreactivity (PSR sort gate): low polyreactivity

Sequence: QVQLVESGGGLVQAGGSLRLSCAASGSIFYSYAMGWYRQAPGKERELVAAISYSSGSTYYADSVKGRFTISRDNAKNTVYLQMNSLKPEDTAVYYCAAEGNGWQVDVTEVGEYDSWGQGTQVTVSS
- polyreactivity (PSR sort gate): high polyreactivity

Sequence: QVQLVESGGGLVQAGGSLRLSCAASGSIFYSYAMGWYRQAPGKERELVARINYRGGSTYYADSVKGRFTISRDNAMNTVYLQMNSLKPEDTAVYYCAKRSYWSSNPRDYWGQGTQVTVSS
- polyreactivity (PSR sort gate): high polyreactivity

Sequence: QVQLVESGGGLVQAGGSLRLSCAASGSIFYTNVMGWYRQAPGKERELVAAISSSGDRTYYADSVKGRFTISRDNAKNTVYLQMNSLKPEDTAVYYCAAQSYRSRYYYWGQGTQVTVSS
- polyreactivity (PSR sort gate): high polyreactivity

Sequence: QVQLVESGGGLVQAGGSLRLSCAASGSIFYTYAMGWYRQAPGKERELVAAISRSGGSTYYADSVKGRFTISRDNAKNTVYLQMNSLKPEDTAVYYCAAVSYRGRGYWGQGTQVTVSS
- polyreactivity (PSR sort gate): high polyreactivity

Sequence: QVQLVESGGGLVQAGGSLRLSCAASGSIFYTYTMGWYRQAPGKERELVAAISTRGGSTYYADSVKGRFTISRDNAKNTFYLQMNSLKPEDTAVYYCAAGLQRYRMYYWGQGTQVTVSS
- polyreactivity (PSR sort gate): high polyreactivity

Sequence: QVQLVESGGGLVQAGGSLRLSCAASGSIFYVNAMGWYRQAPGTERELVAAISWRSGRTYYADSVKGRFTISRDHAKNTVYLQMHSLKPEDTAVYYCAARVRRGSTQAQYYYWGQGTQVTVSS
- polyreactivity (PSR sort gate): high polyreactivity

Sequence: QVQLVESGGGLVQAGGSLRLSCAASGSIFYVNVMGWYRQAPGKERELVATISSGDTNYADSVKGRFTISRDNAKNTVYLQMNSLKPEDTAVYYCARRRTIPYTLVDYDSWGQGTQVTVSS
- polyreactivity (PSR sort gate): low polyreactivity

Sequence: QVQLVESGGGLVQAGGSLRLSCAASGSIFYVYAMGWYRQAPGKERELVAAIRRSGTSTYYADSVKGRFTISRDNAKNTVYLQMNSLKPEDSAVYYCAARYEVRHTLYNYWGQGTQVTVSS
- polyreactivity (PSR sort gate): high polyreactivity

Sequence: QVQLVESGGGLVQAGGSLRLSCAASGSIFYWYAMGWYRQAPGKERELVAGITGRGGSTYYADSVKGRFTISRDNAKNTVYLQMNSLKPEDSAVYYADFVKYGKYYQRYDYWAQGTQVTVSS
- polyreactivity (PSR sort gate): high polyreactivity

Sequence: QVQLVESGGGLVQAGGSLRLSCAASGSIFYWYAMGWYRQAPGKERELVATNRYRGGNTYYADSVKGRFTISRDNAMNTVYLQMNSLKAEDTAVYYADFVKFCKYYQRYDYWGQGTQVTVSS
- polyreactivity (PSR sort gate): high polyreactivity

Sequence: QVQLVESGGGLVQAGGSLRLSCAASGSIFYWYAMGWYSQAPGKERELVAAIDISDDTYYADSVKGRFTISRDNAKNTVYLQMNSLKPEDTAGYYCAARTTRWFYEYDWGQGSQVTVSS
- polyreactivity (PSR sort gate): high polyreactivity

Sequence: QVQLVESGGGLVQAGGSLRLSCAASGSIFYYKYSMGWYRQAPGKERELVAAITSTGGTTYYADSVKGRFTISRDNAKNTVYLQMNSLKPEDTAVYYCAALAPYIGGVDYDYWGQGTQVTVSS
- polyreactivity (PSR sort gate): low polyreactivity

Sequence: QVQLVESGGGLVQAGGSLRLSCAASGSIFYYNAMGWYRPAPGKERELVAAITWSGGTYYADSVKGRFTISRDNAKNTVYLQMNSLKPEDTAVYYCNGARLYKWSFTPKFEMDHWGQGTQVTVSS
- polyreactivity (PSR sort gate): low polyreactivity

Sequence: QVQLVESGGGLVQAGGSLRLSCAASGSIFYYNAMGWYRQAPGKERELDANISWNGASTYYADSVKGRFTISRDNAKNSVYLQMLSLKPEDTAVYYCATAGKGDPPWLPSEVTDYYYWGQGTQVTVSL
- polyreactivity (PSR sort gate): low polyreactivity

Sequence: QVQLVESGGGLVQAGGSLRLSCAASGSIFYYNAMGWYRQAPGKERELVAAITSSGGSTYADSVKGRFSISRDNAKNTVYLQMKSLKPEDTAVYYCNADGGYSYESTDHYGYEYWGQGTQVTVSS
- polyreactivity (PSR sort gate): low polyreactivity

Sequence: QVQLVESGGGLVQAGGSLRLSCAASGSIFYYNAMGWYRQAPGKERELVATITSGGSTYYADSVKGRFTISRDNAKNTVYLQMNSLKPEDTAVYYCAPRSQSIRYTYIRSYYWGQGTQVTVSS
- polyreactivity (PSR sort gate): low polyreactivity

Sequence: QVQLVESGGGLVQAGGSLRLSCAASGSIFYYNAMGWYSQAPGKERELVAAITGSGGSTYYADSVKGRFTISRDNAKNTVYLQMNSLKPEDTAVYYCAADYSLYGWWFRNDYWGQGTQVTVSS
- polyreactivity (PSR sort gate): low polyreactivity

Sequence: QVQLVESGGGLVQAGGSLRLSCAASGSIFYYNDRGWSRQAPGKDRELVATIRSGGNTNYADSVKGRFTISRDIAKNTVYLQMNSLKPEDSAVYYCTARGAYHGYRYDSWGQGTQVTVSS
- polyreactivity (PSR sort gate): low polyreactivity

Sequence: QVQLVESGGGLVQAGGSLRLSCAASGSIFYYNTMGWYRQAPGKERELVAAIRSSSGRTYYADSVKGRFTISRDNAKNTVYLQMNSLKPEDTAVYYCATVHSYTIQRYDYWGQGTQVTVSS
- polyreactivity (PSR sort gate): high polyreactivity

Sequence: QVQLVESGGGLVQAGGSLRLSCAASGSIFYYYAMGWSRQAPGKEREFVAAIRESGGSTYYADSVKGSFTISRDNAKNTVYLQMNSLKAEDTAVYYCAVRRPRRNYNYPYDYWGQGTQVTVSS
- polyreactivity (PSR sort gate): low polyreactivity

Sequence: QVQLVESGGGLVQAGGSLRLSCAASGSIFYYYAMGWYRQAPGKERELVAAIDASGGSTYYADSVKGRFTISRDNAKNTVYLQMNSLKPEDTAVYYCATRSPRLSRHRRYYSWGQGTQVTVSS
- polyreactivity (PSR sort gate): high polyreactivity

Sequence: QVQLVESGGGLVQAGGSLRLSCAASGSIFYYYAMGWYRQAPGKERELVAAISSGGVRTYYADSVKGRFTISRDNAKNTVYLQMKSLKPEDTAVYYCAKDVHSGVTLIHERYYWGQGTQVTVSS
- polyreactivity (PSR sort gate): low polyreactivity

Sequence: QVQLVESGGGLVQAGGSLRLSCAASGSIFYYYAMGWYRQAPGKERELVAAISYGGGSTYYADSVKGRFTISRDNAKNTVYLQMNSLKPEDTAVYYCAVQEVVGWYLYDYWGQGTQVTVSS
- polyreactivity (PSR sort gate): high polyreactivity

Sequence: QVQLVESGGGLVQAGGSLRLSCAASGSIFYYYAMGWYRQAPGKERELVASISTDGSTYADSVKGRFTISRDNAKNTVYLQMNSLKPEDTAVYYCNADTRGEYTYVSWYDYWGQGTQVTVSS
- polyreactivity (PSR sort gate): low polyreactivity

Sequence: QVQLVESGGGLVQAGGSLRLSCAASGSIFYYYTMGWYRAAPGKERELVAGISRSGDRTYYADSVKGRFTISRDNAKNTVYLQMNSLKPEVTAVYYCATRWSSARMDYWGQGTQVTVSS
- polyreactivity (PSR sort gate): high polyreactivity

Sequence: QVQLVESGGGLVQAGGSLRLSCAASGSIFYYYTMGWYRPAPGKERELVASITGGGSTYYADSVKGRFTISRDNAKNTVYLQMNSLKPDDTAVYYCAAYRYGVTNAYGYWGQGTQVTVSS
- polyreactivity (PSR sort gate): high polyreactivity

Sequence: QVQLVESGGGLVQAGGSLRLSCAASGSIIAINAMGWYRQAPGKERDLVAAISWNTGTTYYADSVKGRFTISRDNAKNTVYLQMNSLKPEDTAVYYCAADLWRWESLYKIWLPQYDYWGQGTQVTVSS
- polyreactivity (PSR sort gate): high polyreactivity

Sequence: QVQLVESGGGLVQAGGSLRLSCAASGSIIAYYGMGWYRQAPGKESELVAAITSDASTYYADSVKWRFTISRDNAKKTDYLQMNSLKPVDTAVYYCYAYSYYYVYGYDMGYWGQGTQVTVSS
- polyreactivity (PSR sort gate): low polyreactivity

Sequence: QVQLVESGGGLVQAGGSLRLSCAASGSIICVNAMGWYRQATGKERELVAAISSTGGSTYYADSVKGRFTISRDNAKNTVYLQMNSLKPEDTAVYYCNTDYSKSIGDGYAGFDYWGQGTQVTVSS
- polyreactivity (PSR sort gate): low polyreactivity

Sequence: QVQLVESGGGLVQAGGSLRLSCAASGSIIDQYVMGWYRQAPGKERELVADISIRGGSTYYADSVKGRFTISRDNAKNTVYFQMNSLKPEDTAVYYCNADEWWGYPWEEDDYWGQGTQVTVSS
- polyreactivity (PSR sort gate): low polyreactivity

Sequence: QVQLVESGGGLVQAGGSLRLSCAASGSIIGDNTKGWYRQAPGKERELVAAISWRGGSTYYADSVKGRFTISLDNAKNTVFLQMNSLKPEDTAVYYCIGGPGGYDYWGQGSQVTVSS
- polyreactivity (PSR sort gate): low polyreactivity

Sequence: QVQLVESGGGLVQAGGSLRLSCAASGSIIGGNAMGWYRQAPGKERELVAAIRSGGRTNYADSVKGRFTISRDNAKNTVYLQMNSLKPEDTAVYYCAADYYLGGGYWGQGTQVTVSS
- polyreactivity (PSR sort gate): low polyreactivity

Sequence: QVQLVESGGGLVQAGGSLRLSCAASGSIIGRYTMGWYRQAPGKERELVAAINRSGGSTSYADSVKGRFTISRDNAKNTVYLQMNSLKPEDTAVYYCNRARSVPQFYGTYGFGYDYWGQGTQVTVSS
- polyreactivity (PSR sort gate): low polyreactivity

Sequence: QVQLVESGGGLVQAGGSLRLSCAASGSIIGVNAMGWYRQAPGKERELVAAISSTGGSTYYADSVKGRFTLSRDNAKNTVYLQMNSLKPEDTAVYSCNTDYSKSIGDGYAGFDYWGQGTQVTVSS
- polyreactivity (PSR sort gate): low polyreactivity

Sequence: QVQLVESGGGLVQAGGSLRLSCAASGSIIGYNTMGWYRQAPGKERELVAAISYSSGSTHYADSVKGRFTISRDNAKNTVYLQMNSLKPEDTAVYYCNTVRRWSFGYWGQGTQVTVSS
- polyreactivity (PSR sort gate): low polyreactivity

Sequence: QVQLVESGGGLVQAGGSLRLSCAASGSIIGYYAMGWYRQAPGKECEFVAAITRSGARTYYADSLKGRFTISRDNAKNTVYLQMNSLKPEDTAVYYCAAGAYYRYTIEYDYWGQGTQVTVSS
- polyreactivity (PSR sort gate): high polyreactivity

Sequence: QVQLVESGGGLVQAGGSLRLSCAASGSIIKAYAMGWYREAAGKERELVATITRSGVSTYYADSVNGRFTISRDNAKNTVYLQMKSLKPEDTAVYYCNRTGYVRFYITQQRGYFRYDYWGQGTQVTVSS
- polyreactivity (PSR sort gate): low polyreactivity

Sequence: QVQLVESGGGLVQAGGSLRLSCAASGSIIKPYDMGWYRQAPGKERELVAAIRSSGGRTNYADSVKGRFTISRDNAKNTVYLQMNSLKPEDTAVYYCAAGYVSYWYYRYDYWGQGTQVTVSS
- polyreactivity (PSR sort gate): high polyreactivity

Sequence: QVQLVESGGGLVQAGGSLRLSCAASGSIIKRNAMGWSIQAPGKERELVASISSGGTYYADSVKGRFTISRDNAKNTVYLQMNSLKPEDSAVYYCATDRGVIYRGISGYIHYDYWGQGTQVTGSS
- polyreactivity (PSR sort gate): low polyreactivity

Sequence: QVQLVESGGGLVQAGGSLRLSCAASGSIILPNTMGWYRQAPGKERELVASISWNGGRTYYADSVKGRFTISRDNAKNTVYLQMNSLKPEDTAVYYCNADFRYPRVRYDYWGQGTQVTVSS
- polyreactivity (PSR sort gate): low polyreactivity

Reference: the nanobody polyreactivity screen of Harvey et al. (2022)
